# Measurements: patent US20190002506A1 (Dana-Farber, published 2019)
# Numbering of substitutions follows the chain as printed. In names and notes the source's numbering stands. Numbered stars: 1 amine (or outer) side, 2 acyl side, 3 side chain; on linkers, the order of the positions; unused ones are H or OH. Bridge positions count the residues as written; N and C are the ends. Square brackets hold non-standard residues; d marks the D form. Ends that are not written are not given here. * marks the point of attachment. warhead 3 = D-nipecotic acid acylated with acrylic acid, in place of L21, C=CC(=O)N1CCC[C@@H](C(=O)*)C1; Nip(3R) = O=C([C@@H]1CCCN([*:1])C1)[*:2]; warhead 1 = not defined here; S5 = C=CCCC[C@](C)(N)C(=O)O; Acryloyl = C=CC(=O)*
# B1: NOXA SAHBA (peptide)
# peptide: AELEVECATQLR[S5]FGD[S5]LNFRQKLL
# modifications: staple 13-17; also: N-terminus PEG-biotin or FITC depending on assay
# notes: Stapled NOXA BH3 peptide (aa 19-43) with native C25; also called WT NOXA SAHB; wild-type NOXA SAHBA
# B2: NOXA SAHBA C25S (peptide)
# peptide: AELEVESATQLR[S5]FGD[S5]LNFRQKLL
# modifications: staple 13-17; also: N-terminus PEG-biotin or FITC depending on assay
# notes: Stapled NOXA BH3 peptide with C25S; also called NOXA C25S SAHB; NOXA C25 SAHB
# B3: NOXA SAHBA F32Y (peptide)
# peptide: AELEVECATQLR[S5]YGD[S5]LNFRQKLL
# modifications: staple 13-17; also: FITC-labelled, site not given here
# notes: member of the group m25; also called NOXA SAHB F32 variant with tyrosine
# B4: BIM SAHBA bearing warhead 8 (of FIG. 12B) (peptide)
# peptide: Acryloyl-IAQELR[S5]IGD[S5]FNAYYARR
# modifications: staple 7-11
# notes: also called BIM SAHBA-WH, warhead 8
# B5: BIM SAHBA bearing warhead 1 (of FIG. 12B) (peptide)
# peptide: [(3S)‑1‑acryloylpyrrolidine‑3‑carboxylic acid]IAQELR[S5]IGD[S5]FNAYYARR
# modifications: staple 8-12
# notes: also called BIM SAHBA-WH, warhead 1
# B6: NOXA SAHBA bearing warhead 8 (of FIG. 12B) (peptide)
# peptide: Acryloyl-EVESATQLR[S5]FGD[S5]LNFRQKLL
# modifications: staple 10-14
# notes: also called NOXA SAHBA-WH, warhead 8
# B7: NOXA SAHBA bearing warhead 1 (of FIG. 12B) (peptide)
# peptide: [warhead 1]EVESATQLR[S5]FGD[S5]LNFRQKLL
# modifications: staple 11-15; reading uncertain
# notes: also called NOXA SAHBA-WH, warhead 1
# B8: BIM SAHBA-3 (peptide)
# peptide: [Nip(3R)](Acryloyl)IAQELR[S5]IGD[S5]FNAYYARR
# modifications: staple 8-12
# notes: also called BIM SAHBA-WH with warhead 3; biotinylated BIM SAHBA-3
# B9: NOXA SAHBA-3 (peptide)
# peptide: [warhead 3]EVESATQLR[S5]FGD[S5]LNFRQKLL
# modifications: staple 11-15; also: biotinylated form carries C-terminal Lys-biotin
# notes: also called NOXA SAHBA-WH with warhead 3; biotinylated NOXA SAHBA-3
# Key:
# [1] = target: T1, Bfl-1 (Examples 1-4) (UniProt Q16548 1-153, limits assumed); assay: fluorescence polarization, FITC-labelled SAHB, protein serially diluted from 1 µM
# T1 construct: also called 9×His-tagged Bfl-1
# T1 sequence (looked up): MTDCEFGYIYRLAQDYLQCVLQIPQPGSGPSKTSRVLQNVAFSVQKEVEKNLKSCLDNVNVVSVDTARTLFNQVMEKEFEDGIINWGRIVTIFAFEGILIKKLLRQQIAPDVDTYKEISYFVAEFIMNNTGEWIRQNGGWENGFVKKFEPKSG
# Method: (§1) The solution-state equilibrium binding assay was used to determine binding affinities of the stapled peptides to the anti-apoptotic proteins. Proteins were serially diluted from 1 μM, then combined with FITC-labeled SAHB and polarization measured at 5 min on a microplate reader. We then calculated dissociation constants (KD) by nonlinear regression analysis of dose-response curves.
# [2] = target: T2, MCL-1 (Examples 1-4) (UniProt Q07820 170-327, limits assumed); assay: as above
# T2 construct: also called MCL-I
# T2 sequence (Q07820 170-327 limits assumed): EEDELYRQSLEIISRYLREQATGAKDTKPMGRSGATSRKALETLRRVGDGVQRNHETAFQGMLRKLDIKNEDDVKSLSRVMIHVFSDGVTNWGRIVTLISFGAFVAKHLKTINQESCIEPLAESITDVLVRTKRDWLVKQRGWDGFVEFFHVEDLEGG
# Method: as §1
# [3] = target: T3, BFL-1ΔC (aa 1-153) (human, UniProt Q16548 1-153); assay: biolayer interferometry (Octet RED384): biotin-PEG-NOXA SAHB on super streptavidin tips, BFL-1ΔC construct in solution
# T3 construct: also called wild-type BFL-1ΔC; BFL-1 WT
# T3 sequence: T1 sequence (looked up)
# Method: (§2) Excess streptavidin was quenched by incubation with 2 μg/mL biocytin. The tips were then washed with kinetics buffer and soaked in a serial dilution of BFL-1ΔC for 10 min to measure association rate, followed by a 15 min incubation in kinetics buffer to measure dissociation rate. Dissociation constants were calculated using Octet Data Analysis version 9.0.
# [4] = target: T4, BFL-1ΔC C4S/C19S (human, UniProt Q16548 1-153); assay: as above
# T4 construct: range 1-153; Made by site-directed mutagenesis of BFL-1ΔC; also called His-BFL-1ΔC C4S/C19S; C55-only BFL-1; not shown: N-terminal His tag from the pET19b vector
# T4 sequence (looked up): T1 sequence (looked up) with C4S, C19S
# Method: as §2
# [5] = target: T5, BFL-1ΔC C4S/C19S/C55S (human, UniProt Q16548 1-153); assay: as above
# T5 construct: range 1-153; Made by site-directed mutagenesis of BFL-1ΔC; also called BFL-1 with no cysteines; not shown: N-terminal His tag from the pET19b vector
# T5 sequence (looked up): T1 sequence (looked up) with C4S, C19S, C55S
# Method: as §2
# [6] = target: T4, BFL-1ΔC C4S/C19S; assay: covalent conjugation, 10:1 peptide:protein, reducing denaturing gel, Coomassie
# Method: Processing for gel electrophoresis and Coomassie staining was performed as above.
# [7] = target: T3, BFL-1ΔC (aa 1-153); assay: covalent conjugation with BFL-1 cysteine mutants, gel shift
# [8] = target: T6, HA-BFL-1ΔC C4S/C19S (human, UniProt Q16548 1-153); assay: 293T lysates, 10 µM biotinylated peptide, anti-HA and anti-biotin western
# T6 construct: range 1-153; also called expressed HA-BFL-1ΔC C4S/C19S; not shown: HA tag (pCMV plasmid)
# T6 sequence (looked up): T1 sequence (looked up) with C4S, C19S
# Method: For lysate experiments, cells were trypsinized 24 hours post-transfection, washed with PBS, and lysed by incubation with 1% CHAPS lysis buffer (150 mM NaCl, 50 mM Tris pH 7.4, 100 mM DTT). Protein concentration of the soluble fraction was measured using a BCA kit according to manufacturer's instructions (Thermo Scientific). […] Samples were then boiled in LDS buffer and subjected to western analysis using 1:1000 dilutions of HA (Sigma-Aldrich, #12CA5) and biotin (Abcam, #53494) antibodies. […] After 24 h, cells were trypsinized, washed with PBS, lysed in 1% CHAPS buffer, and the supernatant collected for protein concentration determination by BCA kit. […] The mixtures were then subjected to HA or FLAG (Sigma-Aldrich, F7425) immunoprecipitation, followed by western analysis using 1:1000 dilutions of HA, FLAG, biotin, and BID (Santa Cruz sc-11423) antibodies. […] Cells were harvested and lysed as above, and incubated overnight with anti-HA agarose beads (Pierce). The beads were washed 3 times with lysis buffer, eluted by boiling in LDS buffer, and subjected to western analysis with HA and biotin antibodies.
binder,measurement,setting,value
B1,EC50 (read off the curve),[1],~100 nM
same,EC50 (read off the curve),[2],~200 nM
same,Kd,[3],122 nM
same,Kd,[4],165 nM
same,Kd,[5],118 nM
B2,Kd,[3],46.6 nM
same,Kd,[4],47.2 nM
same,Kd,[5],58.2 nM
B3,EC50 (read off the curve),[1],~200 nM
same,binding result,[2],no binding (tested: 1e-6 M)
B4,binding result,[6],binds
B5,binding result,[6],binds
B6,binding result,[6],binds
B7,binding result,[6],binds
B8,binding result,[7],binds
same,binding result,[8],binds
same,binding result,[6],binds
B9,binding result,[7],binds
same,binding result,[8],binds
same,binding result,[6],binds
